B1: GTP-binding protein RHO1 (Saccharomyces cerevisiae), P06780 (parent)
chain: MSQQVGNSIRRKLVIVGDGACGKTCLLIVFSKGQFPEVYVPTVFENYVADVEVDGRRVELALWDTAGQEDYDRLRPLSYPDSNVVLICFSIDLPDSLENVQEKWIAEVLHFCQGVPIILVGCKVDLRNDPQTIEQLRQEGQQPVTSQEGQSVADQIGATGYYECSAKTGYGVREVFEAATRASLMGKSKTNGKAKKNTTEKKKKKCVLL

Variants of: B1
Conditions: with sec3_yeast SEC3, P33332
Chain of sec3_yeast SEC3, P33332 (P33332 whole entry): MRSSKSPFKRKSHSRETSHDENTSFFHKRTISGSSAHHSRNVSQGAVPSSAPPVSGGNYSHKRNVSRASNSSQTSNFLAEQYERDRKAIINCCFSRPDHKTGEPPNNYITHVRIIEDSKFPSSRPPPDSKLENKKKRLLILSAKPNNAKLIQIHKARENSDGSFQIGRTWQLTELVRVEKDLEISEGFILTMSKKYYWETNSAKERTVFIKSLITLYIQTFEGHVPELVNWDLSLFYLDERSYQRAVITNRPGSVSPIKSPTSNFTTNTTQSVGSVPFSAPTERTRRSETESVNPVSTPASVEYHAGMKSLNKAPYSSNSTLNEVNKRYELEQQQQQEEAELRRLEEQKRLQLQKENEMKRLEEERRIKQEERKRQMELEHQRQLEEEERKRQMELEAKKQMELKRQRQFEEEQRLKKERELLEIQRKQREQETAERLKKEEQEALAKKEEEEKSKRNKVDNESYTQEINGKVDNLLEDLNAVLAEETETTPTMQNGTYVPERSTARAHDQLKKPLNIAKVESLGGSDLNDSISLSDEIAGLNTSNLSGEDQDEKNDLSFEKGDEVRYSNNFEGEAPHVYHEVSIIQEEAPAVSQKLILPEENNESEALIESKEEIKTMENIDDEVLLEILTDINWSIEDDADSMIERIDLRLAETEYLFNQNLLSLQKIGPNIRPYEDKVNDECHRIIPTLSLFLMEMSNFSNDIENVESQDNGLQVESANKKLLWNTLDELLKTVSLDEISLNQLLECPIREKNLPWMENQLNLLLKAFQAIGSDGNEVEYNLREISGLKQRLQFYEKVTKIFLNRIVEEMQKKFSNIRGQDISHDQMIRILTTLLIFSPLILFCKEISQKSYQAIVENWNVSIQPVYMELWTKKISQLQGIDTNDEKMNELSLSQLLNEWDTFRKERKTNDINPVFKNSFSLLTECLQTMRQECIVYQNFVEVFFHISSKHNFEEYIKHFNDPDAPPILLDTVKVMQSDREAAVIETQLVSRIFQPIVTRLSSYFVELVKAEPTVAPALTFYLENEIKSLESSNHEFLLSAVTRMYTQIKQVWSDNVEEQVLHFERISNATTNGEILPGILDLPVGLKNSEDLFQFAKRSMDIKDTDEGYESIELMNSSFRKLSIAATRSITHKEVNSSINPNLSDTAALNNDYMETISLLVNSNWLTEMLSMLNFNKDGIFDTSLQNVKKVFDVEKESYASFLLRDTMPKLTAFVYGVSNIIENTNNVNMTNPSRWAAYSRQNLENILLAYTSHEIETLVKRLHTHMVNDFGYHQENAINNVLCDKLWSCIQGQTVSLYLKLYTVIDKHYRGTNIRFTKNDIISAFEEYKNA

Variant	effect of a mutation on the interaction
V43A	disrupting interaction
F44A	disrupting interaction
Q68A	disrupting interaction
Y71A	disrupting interaction
R73A	disrupting interaction
